Measurements reported in article doi:10.1101/2025.07.08.663435 (bioRxiv, 2025).

T1: SMCHD1 ATPase domain (UniProt A6NHR9 25-581)
T1 sequence: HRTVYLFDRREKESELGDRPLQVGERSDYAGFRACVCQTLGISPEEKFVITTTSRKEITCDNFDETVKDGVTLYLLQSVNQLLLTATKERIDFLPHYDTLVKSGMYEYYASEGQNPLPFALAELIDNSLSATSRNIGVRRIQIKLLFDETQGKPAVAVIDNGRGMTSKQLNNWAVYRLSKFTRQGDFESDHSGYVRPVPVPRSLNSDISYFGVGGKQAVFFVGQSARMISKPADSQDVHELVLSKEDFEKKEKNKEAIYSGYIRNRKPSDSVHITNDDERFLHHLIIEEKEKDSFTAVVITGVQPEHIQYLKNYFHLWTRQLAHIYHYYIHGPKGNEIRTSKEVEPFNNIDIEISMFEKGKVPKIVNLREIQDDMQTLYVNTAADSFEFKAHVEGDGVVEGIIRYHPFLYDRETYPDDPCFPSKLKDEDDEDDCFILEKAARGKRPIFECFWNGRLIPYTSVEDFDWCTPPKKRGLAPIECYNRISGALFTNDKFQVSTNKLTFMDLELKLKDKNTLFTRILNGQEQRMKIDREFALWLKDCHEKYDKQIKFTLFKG

B1: FAM 37 bp duplex (dsDNA)
DNA 1: CCTAGGCTACACCTACTCTTTGTAAGAATTAAGCTTC
DNA 2: GAAGCTTAATTCTTACAAAGAGTAGGTGTAGCCTAGG
B2: SMCHD1^△CC, truncated SMCHD1 without both coiled-coil domains, purified (natural protein, human, UniProt A6NHR9 1-2005, looked up)
chain: MAAADGGGPGGASVGTEEDGGGVGHRTVYLFDRREKESELGDRPLQVGERSDYAGFRACVCQTLGISPEEKFVITTTSRKEITCDNFDETVKDGVTLYLLQSVNQLLLTATKERIDFLPHYDTLVKSGMYEYYASEGQNPLPFALAELIDNSLSATSRNIGVRRIQIKLLFDETQGKPAVAVIDNGRGMTSKQLNNWAVYRLSKFTRQGDFESDHSGYVRPVPVPRSLNSDISYFGVGGKQAVFFVGQSARMISKPADSQDVHELVLSKEDFEKKEKNKEAIYSGYIRNRKPSDSVHITNDDERFLHHLIIEEKEKDSFTAVVITGVQPEHIQYLKNYFHLWTRQLAHIYHYYIHGPKGNEIRTSKEVEPFNNIDIEISMFEKGKVPKIVNLREIQDDMQTLYVNTAADSFEFKAHVEGDGVVEGIIRYHPFLYDRETYPDDPCFPSKLKDEDDEDDCFILEKAARGKRPIFECFWNGRLIPYTSVEDFDWCTPPKKRGLAPIECYNRISGALFTNDKFQVSTNKLTFMDLELKLKDKNTLFTRILNGQEQRMKIDREFALWLKDCHEKYDKQIKFTLFKGVITRPDLPSKKQGPWATYAAIEWDGKIYKAGQLVKTIKTLPLFYGSIVRFFLYGDHDGEVYATGGEVQIAMEPQALYDEVRTVPIAKLDRTVAEKAVKKYVEDEMARLPDRLSVTWPEGDELLPNEVRPAGTPIGALRIEILNKKGEAMQKLPGTSHGGSKKLLVELKVILHSSSGNKEIISHISQHGGKWPYWFKKMENIQKLGNYTLKLQVVLNESNADTYAGRPLPSKAIKFSVKEGKPEKFSFGLLDLPFRVGVPFNIPLEFQDEFGHTSQLVTDIQPVLEASGLSLHYEEITKGPNCVIRGVTAKGPVNSCQGKNYNLKVTLPGLKEDSQILKIRLLPGHPRRLKVKPDSEILVIENGTAFPFQVEVLDESDNITAQPKLIVHCKFSGAPNLPVYVVDCSSSGTSILTGSAIQVQNIKKDQTLKARIEIPSCKDVAPVEKTIKLLPSSHVARLQIFSVEGQKAIQIKHQDEVNWIAGDIMHNLIFQMYDEGEREINITSALAEKIKVNWTPEINKEHLLQGLLPDVQVPTSVKDMRYCQVSFQDDHVSLESAFTVRPLPDEPKHLKCEMKGGKTVQMGQELQGEVVIIITDQYGNQIQAFSPSSLSSLSIAGVGLDSSNLKTTFQENTQSISVRGIKFIPGPPGNKDLCFTWREFSDFIRVQLISGPPAKLLLIDWPELKESIPVINGRDLQNPIIVQLCDQWDNPAPVQHVKISLTKASNLKLMPSNQQHKTDEKGRANLGVFSVFAPRGEHTLQVKAIYNKSIIEGPIIKLMILPDPEKPVRLNVKYDKDASFLAGGLFTDFMISVISEDDSIIKNINPARISMKMWKLSTSGNRPPANAETFSCNKIKDNDKEDGCFYFRDKVIPNKVGTYCIQFGFMMDKTNILNSEQVIVEVLPNQPVKLVPKIKPPTPAVSNVRSVASRTLVRDLHLSITDDYDNHTGIDLVGTIIATIKGSNEEDTDTPLFIGKVRTLEFPFVNGSAEIMSLVLAESSPGRDSTEYFIVFEPRLPLLSRTLEPYILPFMFYNDVQQVPHIEALLKRKLSEQEELKKKPRRSCTLPNYTKGSGDVLGKIAHLAQIEDDRAAMVISWHLASDMDCVVTLTTDAARRIYDETQGRQQVLPLDSIYKKTLPDWKRSLPHFRNGKLYFKPIGDPVFARDLLTFPDNVEHCETVFGMLLGDTIILDNLDAANHYRKEVVKITHCPTLLTRDGDRIRSNGKFGGLQNKAPPMDKLRGMVFGAPVPKQCEEKLGMTPIRKCNDSLRHSPKVETTDCPVPPKRMRREATRQNRIITKTDV

Columns and labels:
SMCHD1 ATPase domain = molecular target: T1, SMCHD1 ATPase domain; test: EMSA
atomic force microscopy = molecular target: the molecule itself; test: atomic force microscopy

Binder | binding result (SMCHD1 ATPase domain) | binding result (atomic force microscopy)
B1 | binds | –
B2 | – | binds
